Measured values taken from article PMC8605242, “Multiple variants of the human presequence translocase motor subunit Magmas govern the mitochondrial import” (The Journal of Biological Chemistry, 2021).

B1: DnaJC15J+T (domain or fragment)
chain: not shown
notes: DnaJC15, human J-protein, N-terminal truncation with the J-domain and predicted MTS (J + T), amino acids 69-146; also called hexahistidine tagged DnaJC15J+T
B2: DnaJC19J+T (domain or fragment)
chain: not shown
notes: DnaJC19, human J-protein, N-terminal truncation with the J-domain and predicted MTS (J + T), amino acids 34-112; also called hexahistidine tagged DnaJC19J+T

What was measured:
GST-Magmas = target: T1, GST-Magmas (human, UniProt Q9Y3D7 1-125); assay: pull-down; 1 μM GST alone or GST-Magmas variants held on beads, increasing concentrations of DnaJC19J+T or DnaJC15J+T, 45 min, 24 °C; 50 mM Tris-HCl pH 7.5, 100 mM KCl, 0.2% Triton-X 100, 10% glycerol, 1 mM PMSF; blocked with 0.1% BSA; SDS-PAGE, Coomassie, densitometry; settings: both partners purified
T1 construct: Magmas, human, full length; vector pGEX-KG; also called GST tagged Magmas; source: E. coli (C41), purified
T1 sequence (looked up): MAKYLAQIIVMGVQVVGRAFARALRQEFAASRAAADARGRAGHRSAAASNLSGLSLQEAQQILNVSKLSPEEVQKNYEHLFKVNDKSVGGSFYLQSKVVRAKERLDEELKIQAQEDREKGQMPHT

GST-Magmas-1 = target: T2, GST-Magmas-1 (human, UniProt I3L3T0 1-145); assay: as above; settings: both partners purified
T2 construct: Magmas-1, human variant of Magmas with a unique N-terminal extension, full length; UniProt entry I3L3T0; vector pGEX-KG; also called GST tagged Magmas-1; source: E. coli (C41), purified
T2 sequence (looked up): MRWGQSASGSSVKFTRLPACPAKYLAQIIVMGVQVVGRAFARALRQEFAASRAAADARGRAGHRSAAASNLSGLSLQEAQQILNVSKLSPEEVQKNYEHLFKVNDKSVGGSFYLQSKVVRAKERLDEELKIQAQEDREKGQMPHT

DnaJC19J+T = target: B2; assay: cell-based or functional assay
Sequence of DnaJC19J+T (Q96DA6 34-112): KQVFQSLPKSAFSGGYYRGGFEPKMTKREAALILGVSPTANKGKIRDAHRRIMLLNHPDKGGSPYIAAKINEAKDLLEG

DnaJC15J+T = target: B1; assay: cell-based or functional assay
Sequence of DnaJC15J+T (Q9Y5T4 69-146): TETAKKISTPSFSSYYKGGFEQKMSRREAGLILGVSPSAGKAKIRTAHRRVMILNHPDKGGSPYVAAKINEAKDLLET

binding result (GST-Magmas)	binding result (GST-Magmas-1)	Binder	inhibition of the DnaJC19J+T-stimulated ATP hydrolysis of mortalin, single turnover assay, Mortalin-ATP : J-protein : Magmas variant 1:2:4 (DnaJC19J+T) [%]	inhibition of the DnaJC15J+T-stimulated ATP hydrolysis of mortalin, single turnover assay, Mortalin-ATP : J-protein : Magmas variant 1:2:4 (DnaJC15J+T) [%]
binds		B1		
binds	binds	B2		
		hexahistidine tagged Magmas-2 (natural protein, human, UniProt I3L1U7 1-129, looked up) MAKYLAQIIVMGVQVVGRAFARALRQEFAASRAAADARGRAGHRSAAASNLSGLSLQEAQQILNVSKLSPEEVQKNYEHLFKVNDKSVGGSFYLQSKRSGLSMLPKLISNSWPQAILLPWPPKTLGLHA	> 90	> 90
